Data: patent publication US8835136B2, “Engineered amine dehydrogenases and methods of use thereof” (Georgia Tech Research Corporation, priority 2012, dated 2014)

Experiments:
[1] = Oxidative deamination, spectrophotometric assay at 340 nm; format: biochemical; details: deamination
Description: (§1) Activity of purified proteins was measured using a spectrophotometric assay at 340 nm, corresponding to the cofactor nicotinamide adenine dinucleotide (NADH, ε340=6220 M^−1 cm^−1) (Dawson, et al., Clarendon Press, (1989). For reductive amination, reactions took place in 500 mM NH4Cl/NH4OH at pH 9.6, with 200 μM NADH and 20 mM of the ketone substrate, unless otherwise specified. […] All reactions were performed at 25° C. unless otherwise specified. Enzyme was added in 10 μL aliquots in dilute concentrations. Enzyme concentrations varied upon activity levels with the substrate present, but were dilute enough to ensure linear conversion kinetics over the analytical time period (10 min to 30 min). Specific activities were then calculated from the stoichiometric conversion of cofactor as determine by the change in absorbance at 340 nm over time.

[2] = as above; format: biochemical; details: deamination, 0.1M glycine pH 10.0, 1 mM NAD+, 20 mM, 25° C.
Description: as §1
The enantioselectivity was initially estimated by measuring the deamination activity toward individual enantiomers of methylbenzylamine (MBA). […] A preference towards (R)-MBA over the corresponding (S)-enantiomer was evident in the discrepancies between the deamination activities of 0.586 U mg^−1 and 0.002 U mg^−1, respectively. These preliminary results were corroborated through direct measurement of the enantioselectivity of the MIBK amination in producing chiral 1,3-DMBA.

B1: K77S N276L: PheDH-AmDH double variant, SEQ ID NO:2; PheDH library 1 hit 1H4 (protein)
chain: SLVEKTSIIKDFTLFEKMSEHEQVVFCNDPATGLRAIIAIHDTTLGPALGGCRMQPYNSVEEALEDALRLSKGMTYSCAASDVDFGGGKAVIIGDPQKDKSPELFRAFGQFVDSLGGRFYTGTDMGTNMEDFIHAMKETNCIVGVPEAYGGGGDSSIPTAMGVLYGIKATNKMLFGKDDLGGVTYAIQGLGKVGYKVAEGLLEEGAHLFVTDINEQTLEAIQEKAKTTSGSVTVVASDEIYSQEADVFVPCAFGGVVNDETMKQFKVKAIAGSANLQLLTEDHGRHLADKGILYAPDYIVNSGGLIQVADELYEVNKERVLAKTKHIYDAILEVYQQAELDQITTMEAANRMCEQRMAARGRRNSFFTSSVKPKWDIRN
Activity, R/S-MBA ([1]; 40 mM, 20 mM of each enantiomer): 0.5 ± 0.2 mU/mg | Activity, 1,3-DMBA ([1]; 0.1M glycine pH 10.0, 1 mM NAD+, 20 mM, 25° C.): 166.3 ± 0.0 mU/mg | Activity, R-MBA [2]: 1.9 ± 1.8 mU/mg | Activity, S-MBA [2]: <1.0 mU/mg
